Results taken from paper PMC8100066.

Experiments:
[1] = biological target: mouse CSL (RBPJ), core domain 53-474 53-474 (UniProt P31266); assay: isothermal titration calorimetry; settings: reference: nonphosphorylated N3RAM peptide; sites S1672
[2] = biological target: mouse CSL (amino acid residues 53-474), conserved and structurally ordered core domain (mouse) (UniProt P31266); assay: ITC; CSL in the cell at 10 μM, RAM peptides in the syringe at 100 μM; 20 °C; 50 mM sodium phosphate, 150 mM sodium chloride; triplicate, 20 injections of 14 μl
Chain of mouse CSL (amino acid residues 53-474), conserved and structurally ordered core domain (mouse) (P31266 53-474): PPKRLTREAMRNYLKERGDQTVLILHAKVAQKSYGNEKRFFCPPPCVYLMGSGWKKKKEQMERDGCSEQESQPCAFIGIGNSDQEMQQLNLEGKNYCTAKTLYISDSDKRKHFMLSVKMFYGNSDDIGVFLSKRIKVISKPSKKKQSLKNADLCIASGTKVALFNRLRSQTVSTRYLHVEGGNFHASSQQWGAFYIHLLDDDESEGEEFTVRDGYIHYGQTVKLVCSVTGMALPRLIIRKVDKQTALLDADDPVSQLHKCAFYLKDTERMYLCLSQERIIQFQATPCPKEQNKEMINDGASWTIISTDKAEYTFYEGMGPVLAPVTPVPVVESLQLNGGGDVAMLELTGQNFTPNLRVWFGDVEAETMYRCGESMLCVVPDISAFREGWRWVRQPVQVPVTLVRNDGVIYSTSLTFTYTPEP

| KD [1] | Kd [2] [µM] | Substance |
| --- | --- | --- |
| lost; reference 0.187 | – | human NOTCH3 (N3RAM peptide) RAM domain, 1665-1682 (from UniProt Q9UM47) N3RAMpS1672 peptide |
| – | 0.187 | human NOTCH3 RAM peptide (residues 1665-1682), nonphosphorylated |
